Measurements as given in the supplement of paper PMC9112550, “Optimization of the antimicrobial peptide Bac7 by deep mutational scanning” (BMC Biology, 2022).

system: Escherichia coli TOP10; test: shrunken log2 fold change of peptide-encoding DNA abundance (4.5 h post-induction vs induction); higher = less antimicrobial activity (less host growth inhibition); conditions: time post-induction: 4.5 h; library: site-saturation at positions 5, 18, 19, 20
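Note: peptides expressed intracellularly from a pBAD plasmid library in pooled LB shake-flask culture, induced with 0.3% L-arabinose, DNA abundance read by NGS, three biological replicates, DESeq2 with apeglm shrinkage.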

| Sequence | shrunken log2 fold change |
| --- | --- |
| RRIRPRPPRLPRPRPRPTFEPRP | 0.035 |
| RRIRLRPPRLPRPRPRPDMWPRP | -0.0873 |
| RRIRWRPPRLPRPRPRPTWEPRP | 0.314 |
| RRIRCRPPRLPRPRPRPIPVPRP | -0.376 |
| RRIRLRPPRLPRPRPRPDLHPRP | -0.0386 |
| RRIRQRPPRLPRPRPRPPMTPRP | -0.268 |
| RRIRPRPPRLPRPRPRPLLNPRP | -0.224 |
| RRIRCRPPRLPRPRPRPMDQPRP | 0.337 |
| RRIRVRPPRLPRPRPRPTNMPRP | -0.472 |
| RRIRDRPPRLPRPRPRPHMMPRP | 0.158 |
| RRIRYRPPRLPRPRPRPTGHPRP | 0.0155 |
| RRIRYRPPRLPRPRPRPSNNPRP | -1.42 |
| RRIRERPPRLPRPRPRPMENPRP | -0.104 |
| RRIRCRPPRLPRPRPRPEGDPRP | 0.193 |
| RRIRVRPPRLPRPRPRPNGHPRP | -0.0787 |
| RRIRVRPPRLPRPRPRPKDAPRP | 0.0211 |
| RRIRPRPPRLPRPRPRPNKEPRP | -0.406 |
| RRIRMRPPRLPRPRPRPNHQPRP | -0.105 |
| RRIRNRPPRLPRPRPRPYRRPRP | -0.281 |
| RRIRRRPPRLPRPRPRPQPPPRP | 0.413 |
| RRIRFRPPRLPRPRPRPQFGPRP | -0.0484 |
| RRIRVRPPRLPRPRPRPTMKPRP | -0.461 |

| Sequence | shrunken log2 fold change |
| --- | --- |
| RRIRVRPPRLPRPRPRPGTGPRP | 0.148 |
| RRIRMRPPRLPRPRPRPVDDPRP | -0.0248 |
| RRIRQRPPRLPRPRPRPNDKPRP | -0.335 |
| RRIRHRPPRLPRPRPRPKPWPRP | 0.528 |
| RRIRRRPPRLPRPRPRPTYEPRP | -0.21 |
| RRIRIRPPRLPRPRPRPGMSPRP | -0.15 |
| RRIRVRPPRLPRPRPRPMIDPRP | -0.283 |
| RRIRWRPPRLPRPRPRPMANPRP | 0.21 |
| RRIRCRPPRLPRPRPRPLSHPRP | -0.432 |
| RRIRDRPPRLPRPRPRPHATPRP | 0.985 |
| RRIRQRPPRLPRPRPRPQGKPRP | -0.0747 |
| RRIRTRPPRLPRPRPRPCKFPRP | -0.298 |
| RRIRLRPPRLPRPRPRPWRHPRP | -0.0415 |
| RRIRKRPPRLPRPRPRPGRRPRP | 0.438 |
| RRIRFRPPRLPRPRPRPLCLPRP | -0.431 |
| RRIRSRPPRLPRPRPRPILVPRP | 0.0112 |
| RRIRPRPPRLPRPRPRPWEAPRP | -0.224 |
| RRIRNRPPRLPRPRPRPESEPRP | 0.0333 |
| RRIRQRPPRLPRPRPRPCVAPRP | 0.317 |
| RRIRYRPPRLPRPRPRPQHYPRP | -0.466 |
| RRIRARPPRLPRPRPRPGGTPRP | 0.41 |
| RRIRDRPPRLPRPRPRPDKRPRP | 0.00902 |

| Sequence | shrunken log2 fold change |
| --- | --- |
| RRIRARPPRLPRPRPRPLWAPRP | 0.589 |
| RRIRIRPPRLPRPRPRPRPSPRP | 0.322 |
| RRIRERPPRLPRPRPRPYSTPRP | -0.335 |
| RRIRARPPRLPRPRPRPWPLPRP | -0.0297 |
| RRIRIRPPRLPRPRPRPGGSPRP | -0.0491 |
| RRIRQRPPRLPRPRPRPPYSPRP | -0.224 |
| RRIRYRPPRLPRPRPRPKGRPRP | -0.258 |
| RRIRVRPPRLPRPRPRPGNMPRP | 0.151 |
| RRIRARPPRLPRPRPRPGEFPRP | 0.388 |
| RRIRVRPPRLPRPRPRPLGQPRP | 0.131 |
| RRIRNRPPRLPRPRPRPRVTPRP | 0.0249 |
| RRIRTRPPRLPRPRPRPMQPPRP | 0.0715 |
| RRIRQRPPRLPRPRPRPQKCPRP | -0.00409 |
| RRIRTRPPRLPRPRPRPACNPRP | 0.0894 |
| RRIRFRPPRLPRPRPRPLTRPRP | -0.0631 |
| RRIRDRPPRLPRPRPRPDTFPRP | -0.0268 |
| RRIRLRPPRLPRPRPRPYGQPRP | -0.0159 |
| RRIRQRPPRLPRPRPRPRIFPRP | -0.131 |
| RRIRHRPPRLPRPRPRPSKTPRP | -0.24 |
| RRIRFRPPRLPRPRPRPIIWPRP | -0.273 |
| RRIRSRPPRLPRPRPRPMVYPRP | -0.111 |
| RRIRERPPRLPRPRPRPWKWPRP | -0.0653 |

| Sequence | shrunken log2 fold change |
| --- | --- |
| RRIRGRPPRLPRPRPRPGFSPRP | 0.644 |
| RRIRCRPPRLPRPRPRPYTPPRP | -1.23 |
| RRIRVRPPRLPRPRPRPVHAPRP | -0.189 |
| RRIRSRPPRLPRPRPRPYCFPRP | -0.544 |
| RRIRTRPPRLPRPRPRPWGSPRP | 0.0639 |
| RRIRMRPPRLPRPRPRPLQSPRP | 2.75 |
| RRIRYRPPRLPRPRPRPNCPPRP | -0.272 |
| RRIRHRPPRLPRPRPRPFSTPRP | -0.304 |
| RRIRRRPPRLPRPRPRPCPPPRP | 0.0965 |
| RRIRYRPPRLPRPRPRPEPVPRP | -0.00973 |
| RRIRDRPPRLPRPRPRPAWYPRP | -0.0946 |
| RRIRRRPPRLPRPRPRPSVYPRP | -0.0412 |
| RRIRARPPRLPRPRPRPHTYPRP | -0.126 |
| RRIRLRPPRLPRPRPRPINVPRP | -0.54 |
| RRIRIRPPRLPRPRPRPLRCPRP | -0.14 |
| RRIRMRPPRLPRPRPRPNWGPRP | 0.448 |
| RRIRGRPPRLPRPRPRPDKCPRP | 0.627 |
| RRIRFRPPRLPRPRPRPWRAPRP | 0.0757 |
| RRIRCRPPRLPRPRPRPQWHPRP | 0.0206 |
| RRIRLRPPRLPRPRPRPAILPRP | 0.0331 |
| RRIRRRPPRLPRPRPRPHSAPRP | 0.0905 |
| RRIRWRPPRLPRPRPRPQHVPRP | -0.274 |

| Sequence | shrunken log2 fold change |
| --- | --- |
| RRIRVRPPRLPRPRPRPCTSPRP | -0.145 |
| RRIRCRPPRLPRPRPRPYNAPRP | -1.23 |
| RRIRDRPPRLPRPRPRPDSDPRP | 0.0999 |
| RRIRQRPPRLPRPRPRPTMVPRP | -0.148 |
| RRIRTRPPRLPRPRPRPNAKPRP | -0.0531 |
| RRIRPRPPRLPRPRPRPNLLPRP | 0.0634 |
| RRIRFRPPRLPRPRPRPQNQPRP | -0.485 |
| RRIRHRPPRLPRPRPRPSPWPRP | 0.0405 |
| RRIRVRPPRLPRPRPRPEHQPRP | -0.477 |
| RRIRTRPPRLPRPRPRPPGGPRP | 0.637 |
| RRIRRRPPRLPRPRPRPPYPPRP | 0.245 |
| RRIRARPPRLPRPRPRPFSYPRP | -0.0901 |
| RRIRVRPPRLPRPRPRPRLGPRP | 0.223 |
| RRIRMRPPRLPRPRPRPWTWPRP | -0.0795 |
| RRIRSRPPRLPRPRPRPTMFPRP | -0.0103 |
| RRIRYRPPRLPRPRPRPKRCPRP | 0.0441 |
| RRIRPRPPRLPRPRPRPCEFPRP | -0.0795 |
| RRIRRRPPRLPRPRPRPYVNPRP | -0.0793 |
| RRIRGRPPRLPRPRPRPTKRPRP | 0.533 |
| RRIRNRPPRLPRPRPRPHGSPRP | -0.00146 |
| RRIRIRPPRLPRPRPRPPVKPRP | -0.156 |
